Experimental findings from PMC3684052 (Molecular cell, 2013) are described below.

Positions count from the first letter of the chain named. Names may count otherwise. No end group written: not given here.

Holding throughout (experiment): pull-down
The target in assay [1] is T1, His-ICAP1 (49–200), wild type (human, UniProt O14713 49-200).
T1 sequence (looked up): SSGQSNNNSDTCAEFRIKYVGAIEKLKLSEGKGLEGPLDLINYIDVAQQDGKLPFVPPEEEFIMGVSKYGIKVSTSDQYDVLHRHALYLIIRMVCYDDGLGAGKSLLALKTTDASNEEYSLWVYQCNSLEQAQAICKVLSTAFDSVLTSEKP

The target in assay [2] is T2, His-ICAP1 (49–200) I89R (human, UniProt O14713 49-200, I89R).
T2 sequence (looked up): T1 sequence (looked up) with I41R

Assay [3] concerns the target T3, His-ICAP1 (49–200) D93A/Q96A (human, UniProt O14713 49-200, D93A | Q96A).
T3 sequence (looked up): T1 sequence (looked up) with D45A, Q48A

For assay [4], the target named is T4, His-ICAP1 (49–200) L135A/I138A/I139A (human, UniProt O14713 49-200, L135A | I138A | I139A).
T4 sequence (looked up): T1 sequence (looked up) with L87A, I90A, I91A

Assay [5] concerns the target T5, His-ICAP1 (49–200) C184D (human, UniProt O14713 49-200, C184D).
T5 sequence (looked up): T1 sequence (looked up) with C136D

For QSHFIPDLFRPSDLERIKTNVINPAYATE (domain or fragment, human, UniProt O00522 170-198, looked up) [GST-KRIT1 (residues 170–198) A176D/P182D], the binding result in assay [1] is on record as “binds”.

For the molecule QSHFIPALFRPSPLERIKTNVIAPAAATE (domain or fragment, human, UniProt O00522 170-198, looked up) [GST-KRIT1 (residues 170–198) N192A/Y195A], the binding result in assay [1] was “binds”.

For QSHFIPALFAPSPLEAIKTNVINPAYATE (domain or fragment, human, UniProt O00522 170-198, looked up) [GST-KRIT1 (residues 170–198) R179A/R185A], the binding result in assay [1] is recorded as “binds”.

On to KLLMIIHDRREFAKFEKEKMNAKWDTGENPIYKSAVTTVVNPKYEGK (domain or fragment, UniProt P05556 752-798, looked up, also: GST fusion) [GST-integrin β1 fusion protein (residues 752 to 798), wild type], for which the binding result in assay [1], in assay [2] and in assay [3] was “binds” throughout.

Turning to QSHFIPALFRPSPLERIKTNVINPAYATE (domain or fragment, human, UniProt O00522 170-198, looked up) [GST-KRIT1 (residues 170–198), wild type], the binding result in assay [1], in assay [4], in assay [5], in assay [2] and in assay [3] was “binds” throughout.
